Experimental data reported in patent US20160002357A1 (Pfizer, published 2016).

What was measured:
[1] = biological target: T1, cynomolgus monkey P-cadherin ECD (cynomolgus monkey); assay: SPR
T1 construct: extracellular domain; also called cyno P-cadherin ECD; Cyno P-cadherin

[2] = biological target: human P-cadherin expressed on the cell surface (human, UniProt P22223 108-829); assay: cell-based or functional assay
[3] = biological target: T2, human P-cadherin, cell surface expressed (human, UniProt P22223 108-829); assay: cell-based or functional assay
[4] = biological target: T2, human P-cadherin, cell surface expressed; assay: cell-based or functional assay; remark: listed apart in the source

human P-cadherin expressed on the cell surface, sequence (P22223 108-829): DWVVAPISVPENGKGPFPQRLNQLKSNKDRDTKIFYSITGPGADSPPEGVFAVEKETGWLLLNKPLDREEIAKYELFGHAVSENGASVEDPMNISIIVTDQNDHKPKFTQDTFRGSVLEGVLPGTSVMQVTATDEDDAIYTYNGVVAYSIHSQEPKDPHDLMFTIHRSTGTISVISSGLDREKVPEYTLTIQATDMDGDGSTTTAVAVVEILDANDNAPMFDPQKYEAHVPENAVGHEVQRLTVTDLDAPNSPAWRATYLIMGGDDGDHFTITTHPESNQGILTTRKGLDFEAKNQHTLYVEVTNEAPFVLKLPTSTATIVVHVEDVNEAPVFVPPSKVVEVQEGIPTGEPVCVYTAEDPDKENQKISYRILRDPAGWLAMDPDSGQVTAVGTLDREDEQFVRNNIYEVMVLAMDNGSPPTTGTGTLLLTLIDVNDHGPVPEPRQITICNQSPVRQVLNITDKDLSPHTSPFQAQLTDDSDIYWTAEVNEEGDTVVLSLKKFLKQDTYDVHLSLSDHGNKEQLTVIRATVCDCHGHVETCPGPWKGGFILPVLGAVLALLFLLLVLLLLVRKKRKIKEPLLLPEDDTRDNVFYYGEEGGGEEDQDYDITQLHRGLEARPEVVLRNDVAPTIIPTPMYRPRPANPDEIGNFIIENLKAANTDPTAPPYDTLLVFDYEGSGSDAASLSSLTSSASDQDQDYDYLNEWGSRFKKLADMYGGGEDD
T2 sequence (P22223 108-829): as above

| Binder | Kd [1] | T cell Cytotoxicity [2] | T cell directed cytotoxicity EC50, CHO-CDh3 (24 h), LDH release, human PBMC E:T 30:1 [3] | T cell directed cytotoxicity EC50, H1650 (24 h), LDH release, human PBMC E:T 30:1 [3] | T cell directed cytotoxicity EC50, H1650 (40 h), LDH release, human PBMC E:T 30:1 [3] | T cell directed cytotoxicity EC50, H1650 LDH 24 hr 30:1 D41183 [4] | T cell directed cytotoxicity EC50, HCT116 Luc 48 hr 10:1 D43905 [4] |
| --- | --- | --- | --- | --- | --- | --- | --- |
| LP-DART #5 (bispecific antibody, also called P-cadherin LP-DART construct #5 (P-CAD 35, CD3-2)) chain 1: QAVVTQEPSLTVSPGGTVTLTCRSSTGAVTTSNYANWVQQKPGQAPRGLIGGTNKRAPWTPARFSGSLLGGKAALTITGAQAEDEADYYCALWYSNLWVFGGGTKLTVLGGGGSGGGGEVQLVQSGAEVKKPGASVKVSCKASGYTFTSYGISWVRQAPGQGLEWMGWISAYNGNTNYAQKLQGRVTMTTDTSTSTAYMELRSLRSDDTAVYYCATIDTASAFDIWGQGTMVTVSSGCPPCPAPEAAGAPSVFLFPPKPKDTLMISRTPEVTCVVVDVSHEDPEVKFNWYVDGVEVHNAKTKPREEQYNSTYRVVSVLTVLHQDWLNGKEYKCKVSNKALPAPIEKTISKAKGQPREPQVYTLPPCREEMTKNQVSLSCAVKGFYPSDIAVEWESNGQPENNYKTTPPVLDSDGSFFLVSKLTVDKSRWQQGNVFSCSVMHEALHNHYTQKSLSLSPG chain 2: QSVLTQPPSVSAAPGQKVTISCSGSSSNIGNNYVSWYQQLPGTAPKLLIYDNNKRPSGIPDRFSGSKSGTSATLGITGLQTGDEADYYCGTWDSSLSAVVFGGGTKLTVLGGGSGGGGEVQLVESGGGLVQPGGSLRLSCAASGFTFNTYAMNWVRQAPGKGLEWVARIRSKYNNYATYYADSVKDRFTISRDDSKNSLYLQMNSLKTEDTAVYYCVRHGNFGNSYVSWFAYWGQGTLVTVSSGCPPCPAPEAAGAPSVFLFPPKPKDTLMISRTPEVTCVVVDVSHEDPEVKFNWYVDGVEVHNAKTKPREEQYNSTYRVVSVLTVLHQDWLNGKEYKCKVSNKALPAPIEKTISKAKGQPREPQVCTLPPSREEMTKNQVSLWCLVKGFYPSDIAVEWESNGQPENNYKTTPPVLDSDGSFFLYSKLTVDKSRWQQGNVFSCSVMHEALHNHYTQKSLSLSPG | 62.1 nM | 0.74 nM |  |  |  |  |  |
| LP-DART #7 (bispecific antibody, also called P-cadherin LP-DART construct #7 (P-CAD 35, CD3-2)) chain 1: QAVVTQEPSLTVSPGGTVTLTCRSSTGAVTTSNYANWVQQKPGQAPRGLIGGTNKRAPWTPARFSGSLLGGKAALTITGAQAEDEADYYCALWYSNLWVFGGGTKLTVLGGGGSGGGGEVQLVQSGAEVKKPGASVKVSCKASGYTFTSYGISWVRQAPGQGLEWMGWISAYNGNTNYAQKLQGRVTMTTDTSTSTAYMELRSLRSDDTAVYYCATIDTASAFDIWGQGTMVTVSSGEPKSSDKTHTCPPCPAPEAAGAPSVFLFPPKPKDTLMISRTPEVTCVVVDVSHEDPEVKFNWYVDGVEVHNAKTKPREEQYNSTYRVVSVLTVLHQDWLNGKEYKCKVSNKALPAPIEKTISKAKGQPREPQVYTLPPCREEMTKNQVSLSCAVKGFYPSDIAVEWESNGQPENNYKTTPPVLDSDGSFFLVSKLTVDKSRWQQGNVFSCSVMHEALHNHYTQKSLSLSPG chain 2: QSVLTQPPSVSAAPGQKVTISCSGSSSNIGNNYVSWYQQLPGTAPKLLIYDNNKRPSGIPDRFSGSKSGTSATLGITGLQTGDEADYYCGTWDSSLSAVVFGGGTKLTVLGGGSGGGGEVQLVESGGGLVQPGGSLRLSCAASGFTFNTYAMNWVRQAPGKGLEWVARIRSKYNNYATYYADSVKDRFTISRDDSKNSLYLQMNSLKTEDTAVYYCVRHGNFGNSYVSWFAYWGQGTLVTVSSGEPKSSDKTHTCPPCPAPEAAGAPSVFLFPPKPKDTLMISRTPEVTCVVVDVSHEDPEVKFNWYVDGVEVHNAKTKPREEQYNSTYRVVSVLTVLHQDWLNGKEYKCKVSNKALPAPIEKTISKAKGQPREPQVCTLPPSREEMTKNQVSLWCLVKGFYPSDIAVEWESNGQPENNYKTTPPVLDSDGSFFLYSKLTVDKSRWQQGNVFSCSVMHEALHNHYTQKSLSLSPG | 96.6 nM | 2.85 nM |  |  |  |  |  |
| 35 EK-DART (P-CAD 35 x CD3-2) (bispecific antibody) chain 1: QSVLTQPPSVSAAPGQKVTISCSGSSSNIGNNYVSWYQQLPGTAPKLLIYDNNKRPSGIPDRFSGSKSGTSATLGITGLQTGDEADYYCGTWDSSLSAVVFGGGTKLTVLGGGSGGGGEVQLVESGGGLVQPGGSLRLSCAASGFTFNTYAMNWVRQAPGKGLEWVARIRSKYNNYATYYADSVKDRFTISRDDSKNSLYLQMNSLKTEDTAVYYCVRHGNFGNSYVSWFAYWGQGTLVTVSSGGCGGGKVAALKEKVAALKEKVAALKEKVAALKE chain 2: QAVVTQEPSLTVSPGGTVTLTCRSSTGAVTTSNYANWVQQKPGQAPRGLIGGTNKRAPWTPARFSGSLLGGKAALTITGAQAEDEADYYCALWYSNLWVFGGGTKLTVLGGGGSGGGGEVQLVQSGAEVKKPGASVKVSCKASGYTFTSYGISWVRQAPGQGLEWMGWISAYNGNTNYAQKLQGRVTMTTDTSTSTAYMELRSLRSDDTAVYYCATIDTASAFDIWGQGTMVTVSSGGCGGGEVAALEKEVAALEKEVAALEKEVAALEK |  |  | 0.0398 nM | 0.501 nM | 0.0532 nM | 0.102 nM | 0.205 nM |
| LP-DART #6 (bispecific antibody, also called P-cadherin LP-DART construct #6 (P-CAD 35, CD3-2)) chain 1: QAVVTQEPSLTVSPGGTVTLTCRSSTGAVTTSNYANWVQQKPGQAPRGLIGGTNKRAPWTPARFSGSLLGGKAALTITGAQAEDEADYYCALWYSNLWVFGGGTKLTVLGGGGSGGGGEVQLVQSGAEVKKPGASVKVSCKASGYTFTSYGISWVRQAPGQGLEWMGWISAYNGNTNYAQKLQGRVTMTTDTSTSTAYMELRSLRSDDTAVYYCATIDTASAFDIWGQGTMVTVSSGGTGGCPPCPAPEAAGAPSVFLFPPKPKDTLMISRTPEVTCVVVDVSHEDPEVKFNWYVDGVEVHNAKTKPREEQYNSTYRVVSVLTVLHQDWLNGKEYKCKVSNKALPAPIEKTISKAKGQPREPQVYTLPPCREEMTKNQVSLSCAVKGFYPSDIAVEWESNGQPENNYKTTPPVLDSDGSFFLVSKLTVDKSRWQQGNVFSCSVMHEALHNHYTQKSLSLSPG chain 2: QSVLTQPPSVSAAPGQKVTISCSGSSSNIGNNYVSWYQQLPGTAPKLLIYDNNKRPSGIPDRFSGSKSGTSATLGITGLQTGDEADYYCGTWDSSLSAVVFGGGTKLTVLGGGSGGGGEVQLVESGGGLVQPGGSLRLSCAASGFTFNTYAMNWVRQAPGKGLEWVARIRSKYNNYATYYADSVKDRFTISRDDSKNSLYLQMNSLKTEDTAVYYCVRHGNFGNSYVSWFAYWGQGTLVTVSSGGTGGCPPCPAPEAAGAPSVFLFPPKPKDTLMISRTPEVTCVVVDVSHEDPEVKFNWYVDGVEVHNAKTKPREEQYNSTYRVVSVLTVLHQDWLNGKEYKCKVSNKALPAPIEKTISKAKGQPREPQVCTLPPSREEMTKNQVSLWCLVKGFYPSDIAVEWESNGQPENNYKTTPPVLDSDGSFFLYSKLTVDKSRWQQGNVFSCSVMHEALHNHYTQKSLSLSPG | 86.6 nM | 1.29 nM |  |  |  |  |  |
| LP-DART #4 (bispecific antibody, also called P-cadherin LP-DART construct #4 (P-CAD 35, CD3-2)) chain 1: QAVVTQEPSLTVSPGGTVTLTCRSSTGAVTTSNYANWVQQKPGQAPRGLIGGTNKRAPWTPARFSGSLLGGKAALTITGAQAEDEADYYCALWYSNLWVFGGGTKLTVLGGGGSGGGGEVQLVQSGAEVKKPGASVKVSCKASGYTFTSYGISWVRQAPGQGLEWMGWISAYNGNTNYAQKLQGRVTMTTDTSTSTAYMELRSLRSDDTAVYYCATIDTASAFDIWGQGTMVTVSSGGTGGGEPKSSDKTHTCPPCPAPEAAGAPSVFLFPPKPKDTLMISRTPEVTCVVVDVSHEDPEVKFNWYVDGVEVHNAKTKPREEQYNSTYRVVSVLTVLHQDWLNGKEYKCKVSNKALPAPIEKTISKAKGQPREPQVCTLPPSREEMTKNQVSLWCLVKGFYPSDIAVEWESNGQPENNYKTTPPVLDSDGSFFLYSKLTVDKSRWQQGNVFSCSVMHEALHNHYTQKSLSLSPG chain 2: QSVLTQPPSVSAAPGQKVTISCSGSSSNIGNNYVSWYQQLPGTAPKLLIYDNNKRPSGIPDRFSGSKSGTSATLGITGLQTGDEADYYCGTWDSSLSAVVFGGGTKLTVLGGGSGGGGEVQLVESGGGLVQPGGSLRLSCAASGFTFNTYAMNWVRQAPGKGLEWVARIRSKYNNYATYYADSVKDRFTISRDDSKNSLYLQMNSLKTEDTAVYYCVRHGNFGNSYVSWFAYWGQGTLVTVSSGGTGGGEPKSSDKTHTCPPCPAPEAAGAPSVFLFPPKPKDTLMISRTPEVTCVVVDVSHEDPEVKFNWYVDGVEVHNAKTKPREEQYNSTYRVVSVLTVLHQDWLNGKEYKCKVSNKALPAPIEKTISKAKGQPREPQVYTLPPCREEMTKNQVSLSCAVKGFYPSDIAVEWESNGQPENNYKTTPPVLDSDGSFFLVSKLTVDKSRWQQGNVFSCSVMHEALHNHYTQKSLSLSPG | 128 nM | 2.45 nM |  |  |  |  |  |
